Data published in a protein production outcome set (Wang et al. 2014).

Assay: label from the status in PepcDB records

Row | Sequence | protein production
1 | MKLVEHYIMRGTRRLVLIIVGFLIFIFASYSAQRYLTEAANGTLALDVVLDIVFYKVLIALEMLLPVGLYVSVGVTLGQMYTDSEITAISAAGGSPGRLYKAVLYLAIPLSIFVTLLSMYGRPWAYAQIYQLEQQSQSELDVRQLRAKKFNTNDNGRMILSQTVDQDNNRLTDALIYTSTANRTRIFRAGSVDVVDPSPEKPTVMLHNGTAYLLDHQGRDDNEQIYRNLQLHLNPLDQSPNVKRKAKSVTELARSAFPADHAELQWRQSRGLTALLMALLAISLSRVKPRQGRFSTLLPLTLLFIAIFYGGDVCRTLVANGAIPLIPGLWLVPGLMLMGLLILVARDFSLLQKFSR | failed
2 | SDESDLPSAMPAVPAFGVEERNMVSGVLTLAERSIRSIMTPRTDVSWVNIDDDAATIRQQLTAAPHSFFPVCRGSLDEVVGIGRAKDLVADLITEGRVRRNRLRDPIIVHESIGILRLMDTLKRSRGQLVLVADEFGAIEGLVTPIDVFEAIAGEFPDEDELPDIVAESE | not failed
3 | MNYQDVLDFWFAPDHTNFWFAKDSLFDDEIRTQFSTVHQQATQAELWSWRQTVEGRLAEIIVLDQFSRNLYRDQAQAFAQDSMALALAQEAITQQLDAQLSPEQRSFLYMPFMHSESKLIHEFALKLFQKLGNEINLSFEKKHKVIIDQFGRYPHRNAILGRQSTPEELEFLTQPNSHF | failed
4 | MSLGQTTLACSFRSLTNPYYTAFNKGAQSFAKSVGLPYVPLTTEGSSEKGIADIRALLQKTGGNLVLNVDPNDSADARVIVEACSKAGAYVTTIWNKPKDLHPWDYNPNYVAHLSYDGVAYGEETATQLFKSMGGKGGVVALGGIFSNVPAIERKAGLDAALKKFPGIQLLDFQVADWNSQKAFPIMQAWMTRFNSKIKGVWAANDDMALGAIEALRAEGLAGQIPVTGMDGTQPGLVAIKSGELVASVDWDPFWLGGIGLSMGLQAKEKKIDLATLPKDRRESFCTATFVTKTNVQDVIARAASPKAEWNNLYARVAGPVVYREGHHHHHH | not failed
5 | MSLINARLIAFEDQWVPALNAPLKQAILADSQDAQLAAAMTYSVLAGGKRLRPLLTVATMQSLGVTFVPERHWRPVMALELLHTYSLIHDDLPAMDNDALRRGEPTNHVKFGAGMATLAGDGLLTLAFQWLTATDLPATMQAALVQALATAAGPSGMVAGQAKDIQSEHVNLPLSQLRVLHKEKTGALLHYAVQAGLILGQAPEAQWPAYLQFADAFGLAFQIYDDILDVVSSPAEMGKATQKDADEAKNTYPGKLGLIGANQALIDTIHSGQAALQGLPTSTQRDDLAAFFSYFDTERVNEGHHHHHH | not failed
6 | MNFNWFLMLFLFNFSVLLGSDTTALGHYQRANEYYLSKRYYDAIDELVEAIKINPNYYEAYKFIASIYYSLKIYTQAQFFIEKASKMSNEDTEYKILYANILLKNDKIDQAKKIYSEVLVKQRNNIDALVGLASIFEKNGLFIAAANYYLSILDYSQNNYSAFEHLIDIYQRLGMHDKIRHLINKVRVNFLSFPDFHKRVAEFYISINNLGLAEKYALNYLALIESSYKDFGVVDAYRLLALVYLHEFKYEDAIEALQKAILVNKDSDELYYLLGYSYLRFGDIEKAILNLERAKNLKKDLEFYNIALEESFFASNFRNFLKNNSNARISKHYENEGLKAFKSLNLNKALFNAKNAVDIWPDNDSARFLLSKIYKLMNLDIMAYEQLFYLAKQRNSTDSRILDFYDVVSFDVRKSLFYKYGYKSIADFNKLYDDRVVYKMAIFTQSENKFFGANDLILRYAERVLERNLNMEIVNYNFDYNKNRDYLINNFSEGFSYSRNNNLDLFLIFDFKADILKNTATLVVNIFSGKTGIKLVSFSYDVGGVNYLSNALNSLSKDFHDYLPKKGKILQIKNDDALINLGQVNGVVKGDVFLILKEGALNSDTRDSGFIVYKKSDILGEILIEDISDYISRGIVKSSTFLKDYVQEGATVLIKR | failed
7 | VHVLIRPLQAQDREREKAFIERLSPESRHFRFLCQLREPGEAMLDQLMKVDQDRQAAYVALAHVDGELQEVGISRYATASGKDECECAVTVMDSWQHHGLGRLLLKHLIDHARAKGLRQMYSVDAAANQAMRELAKAAGFTT | failed
8 | THGVVIIDVTKNENKVIYVNRAFERITGYGEQHALGKGLLTLLGSNLEEVNHKRIELAIRESKEETIEMESIKRNGEFYWCEISVAPVKDSF | failed
9 | KTPADNIETADLSASVPTRPAEPERKTLADYGGYPSALDAVKQKNDAAVAAYLENAGDSAMAENVRNEWLKSLGARRQWTLFAQEYAKLEPAGRAQEVECYADSSRNDYTRAAELVKNTGKLPSGCTKLLEQAAASGLLDGNDAWRRVRGLLAGRQTTDARNLAAALGSPFDGGTQGSREYALLNVIGKEARKSPNAAALLSEMESGLSLEQRSFAWGVLGHYQSQNLNVPAALDYYGKVADRRQLTDDQIEWYARAALRARRWDELASVISHMPEKLQKSPTWLYWLARSRAATGNTQEAEKLYKQAAATGRNFYAVLAGEELGRKIDTRNNVPDAGKNSVRRMAEDGAVKRALVLFQNSQSAGDAKMRRQAQAEWRFATRGFDEDKLLTAAQTAFDHGFYDMAVNSAERTDRKLNYTLRYISPFKDTVIRHAQNVNVDPAWVYGLIRQESRFVIGAQSRVGAQGLMQVMPATAREIAGKIGMDAAQLYTADGNIRMGTWYMADTKRRLQNNEVLATAGYNAGPGRARRWQADTPLEGAVYAETIPFSETRDYVKK | failed
10 | MIFRLGDFRFPDDPARLYPDTPDRPWVLEIGFGDGRFWPHYARTFPEPPNYLGVEISGVSLLKAHRRLKDAGLTNAVLTKLPAEVLVAQVIPHGSLDAIIVNFPDPWPKAGHEDHRLLRVPFFQVAASRLKPGGAALLTTDHDEYFEFACAQAEASGVMRVERVGPPPAALETKYAQKWRDLGLGVNHARFVPTRHDPVPNGTFAPYSEEDPAVPHAVLTLPADFSPQHFDKLTVRGKTWTVVLLDLYATLRRGGWVALAHVVEGDLTQEVLVGITEREDGTHLVRLAKFGGPIITPGVKAAVGAVTEWLEGQGAVVKHRGY | failed
11 | MTGKPLTDYVALGFTALERGDCQEAVNIFRRAQETGPTARSFVGLGLAFHRLGDPPAARWAFAKALDLEPADRDANEWIERIGRPAVPARTSGGRGCRFRAGEDFLQIKENGSWRRFFIKGINLGLGLPGYFPGEYPIHRETYRRWFRLMGELGVNSLRVYAVQSPGFYEALADHNEQGGRLFLFQGIWLELPEDGDFRGRDFLAYAHRQIREAVDSVCGSADFPERPGLPHGSYRRDVSPWTAAYVVGREWESCAVRAFNGRYGRKRGGFAGQFLKVDDGLPFEQWAAEICDYLQSYEHATYDCTHPVTTINWPTLDPLTHPSESTYEEGLIRQGFQVNVDVCNEDEDVETFDPALIASRQGAGFFATYHVYPYYPDFLNNDFLDVENPYREYLKRLRRHHGRQPVVIAEFGVPSSREATHWQRDGWHHGGHDEVSQGKINGYMMEAIRDAGLAGGMLFSWFDEWFKRNWVFLPYELPAERNPFWFNHQDAEQTYGLMAAYPGYPGKVVTLAGRREEWRDASLLQEKRGGAPLHRFGDGRDGARTLVRLSARHDEGFFYLCLETAEPVDFSAAHYLIGLNTCGAKAGETLLPFDTNARSPLGLTFLIHLAGEGASRILVSRFYDKYLNEGLPVRPVPSDTGEWVVMQNITNHRRISKDGTRFYPSRVFSMSGLRFGSLDPQSPRFDSLADWHVSGTLIELRLPWGLLNITDPSSRQVLWMAEQGGKTHTTDGIAAIACSYRPSGEGLAARPTGGRTNLADSLPAGLGSDAVRRYQWERWNHPLYHTYLKRSYYLYRDVLDRMPE | failed
12 | MCSMASHDLSVFLEEFGATVNLTLPGIVSEKERLLLKLLMEGMSVTEISQYRNRSAKTISHQKKQLYEKLGIQSDITFWRDIFFQYHPQVISGTGNKNNFYIPDNRCHHIVTPEAISLALENHEFKPWIQPVFCAQTGVLTGCEVLVRWEHPQTGIIPPDQFIPLAESSGLIVIMTRQLMKQTADILMPVKHLLPDNFHIGINVSAGCFLAAGFEKECLNLVKKLGNDKIKLVLELTERNPIPVTPEARAIFDSLHQHNITFALDDFGTGYATYRYLQAFPVDFIKIDKSFVQMAGVDEISGHIVDNIVELARKPGLSIVAEGVETQEQADLMIGKGVHFLQGYLYSPPVPGNKFISEWVMKAGG | failed
13 | MKTAKRRAFAFATFAIAGLAACENTSSPSLPKDQVMAPGVDLRAAAKQDSSEAVEAGHRMIAAGEYELALRAFNRAALSRGALDAEILSGLGTANLGLGRLGQAEELLRRAVRDDAAQPVDYNNLGVLLMEQGNTAEALQYFRRAFALSNGENIAIRDNLRLALAKTENSATLEAEKSSEYKLVRRGNSDFVIRPTP | failed
14 | MATATTTKTKTKATKKTRAKKATKKRATPKKNLVIVESPAKAKTIEKYLGRNYKVVASVGHIRDLKKSSMSIDFENNYEPQYINIRGKGPLIKELKKEAKKAKKVFLASDPDREGEAISWHLSHILGLEPEDKNRVVFNEITKDAVKNAFAEPRAIDMDLVDAQQARRVLDRIVGYSISPLLWKKVKKGLSAGRVQSVALKLIIDRENEIKAFKPEEYWTIDGAFKKGAKKFQASFYGLDGKKLKLNNNDDVKDVLSRIISDDFNVDKVEKKERRRNAPLPYTTSSLQQDAANKINFRTRKTMMVAQQLYEGINLGSGAQGLITYMRTDSTRISPVAQNQAAEFITERYGSKYSKHGSKVKNSSAAQDAHEAIRPSNVFQTPESIAKYLDKDQLKLYTLIWNRFVASQMTAAVFDTMKVTLSQNGVIFTANGSQIKFDGYMAVYNDSDKNKMLPEMAEGDTIKKVVTTPEQHFTQTPARYSEATLIKTLEENGVGRPSTYAPTLDVIQRRYYVKLVAKRFEPTELGEIVNSLIVEFFPDIVDVKFTAEMEAKLDKVEIGKEQWQKVIDEFFKPFQKELEKAEEGIEKIQIKDEPAGFDCDLCGHPMVIKLGRYGKFYACSNFPDCHNTKAITKEIGVTCPTCGQGQVIERKTKRNRVFYGCDRYPDCEFTSWDIPIGRNCPKSGDYLVEKKVRGGGKQVICSNEECDYKESVIK | failed
15 | MDSYSITNVKYLDPTELHRWMQEGHTTTLREPFQVVDVRGSDYMGGHIKDGWHYAYSRLKQDPEYLRELKHRLLEKQADGRGALNVIFHCMLSQQRGPSAAMLLLRSLDTAELSRCRLWVLRGGFSRWQSVYGDDESVTAGYLPDLWR | not failed
16 | MPNHDYRELAAVFAGGALGALARAALSALAIPDPARWPWPTFTVNVVGAFLVGYFTTRLLERLPLSSYRRPLLGTGLCGGLTTFSTMQVETISMIEHGHWGLAAAYSVVSITLGLLAVHLATVLVRRVRIRR | failed
17 | MKSKTIRRWSFIHTWTSLICTVFLLMLALTGLPLIFHHEIDHLLGDSPELREMPADTPHLDLQQLVKAAEAHRPGEVMQYFGWDEDEPNGVMTIMARTAGTEPNASHTFMLDARTGEAVAMPSANGGLMMVMLRLHVDMFAGLPGKLLLAFMGILFVLAIISGTVLYLPFMRRLKFATVRQDKSSRLRWLDLHNLIGVVTLTWALVVGVTGVISACADLIIAAWRNDSLSAMVAPYRDAPPLTSLAPASRLLDIAREAAPGMQPDFIAFPGTRFSSEHHYAVFLKGSSHLTSHLLTPVLIDASSLQVTAVAGRPWYMDAMGMSQPLHFGDYGGMPMKVLWAAMDMLTIIVLGSGLYLWLARRRAGKSMPQVRP | failed
18 | MIIKGRAHKFGDDVDTDAIIPGPYLRTTDPYELASHCMAGIDENFPKKVKEGDVIVAGENFGCGSSREQAVIAIKYCGIKAVIAKSFARIFYRNAINVGLIPIIANTDEIKDGDIVEIDLDKEEIVITNKNKTIKCETPKGLEREILAAGGLVNYLKKRKLIQSKKGVKT | not failed
19 | MTDDKKIRAAIVGYGNIGRYALQALREAPDFEIAGIVRRNPAEVPFELQPFRVVSDIEQLESVDVALVCSPSREVERTALEILKKGICTADSFDIHDGILALRRSLGDAAGKSGAAAVIASGWDPGSDSVVRTLMQAIVPKGITYTNFGPGMSMGHTVAVKAIDGVKAALSMTIPLGTGVHRRMVYVELLPGHNLEEVSAAIKADEYFVHDETHVIQVDEVDALIDMGHGVRMVRKGVSGSTQNQRMSFDMEINNPALTGQVLVCAARAAMRQQPGAYTLQEIPVIDLLPGDREQWIGKLC | not failed
